# Data taken from the nanobody polyreactivity screen of Harvey et al. (2022).
# Test: yeast display, Sf9 membrane polyspecificity reagent, FACS + sequencing; frameworks hold sequencing errors
# Outline: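 Galactose-induced (36–48 hours) yeast carrying a synthetic nanobody display library were exposed to 10% biotinylated, detergent-solubilized Sf9 membrane reagent at 4 °C for 1 hour. FACS followed streptavidin microbead enrichment, using low and high (top ~1%) gates for expression (anti-HA) and reagent binding (streptavidin). Colony PCR, MiSeq 2 × 250 sequencing and CDR-length filtering followed. Labels for polyreactivity reflect the gate of origin.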
row,Sequence,polyreactivity (PSR sort gate)
1,QVQLVESGGGLVQAGGSLRLSCAASGSIFPYNAMGWYRQAPGKERELVAAITTSGTSTYYADSVKGRFTISRDNAKNTVYLQMNSLKPEDTAVYYCAATSRGAISKARFYYWGQGTQVTVSS,high polyreactivity
2,QVQLVESGGGLVQAGGSLRLSCAASGSIFPYNAMGWYRQAPGKERELVATISSGGSTNYADSVKGRFTISRDNAKNTVYLHMNSLKPEDTAVYYCAADVIVFYYAPNYWGDIGYGYWGQGTQVTVSS,low polyreactivity
3,QVQLVESGGGLVQAGGSLRLSCAASGSIFPYYAMGWYRPAPGTERELVAAISRGGGTTYYADSVKGRFTISRDNAKNTVYLQMNSLKPEDTAVYYCAARQWRISTPYDYWGQGTQVTVSS,high polyreactivity
4,QVQLVESGGGLVQAGGSLRLSCAASGSIFPYYAMGWYRQAPGKERELVAAINWIGGSTYYADSVKGRFTISRDNAKNTVYLQMNSLKPEDTAVYYCAVDYYSYYYEYDYWGQGTQVTVSS,high polyreactivity
5,QVQLVESGGGLVQAGGSLRLSCAASGSIFPYYAMGWYRQAPGKERELVAAITGAGSTNYADSVKGRFTISRDNAKNTVYLQMNSLKPEDTAVYYCAADFGSPDKWRDWYDYWGQGTQVTVSS,low polyreactivity
6,QVQLVESGGGLVQAGGSLRLSCAASGSIFPYYAMGWYRQAPGKERELVAAITYIGGDTYYADSVKGRFTISRDNAKNTVYLQMNSLKPEDTAVYYCAAELSWRQYDYEYWGQGTQVTVSS,low polyreactivity
7,QVQLVESGGGLVQAGGSLRLSCAASGSIFPYYTMGWYRQAPGKERELVAAISGSGGSTYYADSVKGRFTISRDNAKNTVYLQMNSLKPEDTAVYYCAAYRRTWFDYWGQGTQVNVSS,high polyreactivity
8,QVQLVESGGGLVQAGGSLRLSCAASGSIFPYYTMGWYRQAPGKERELVATITTGGSTNYADSVKGRFTISRDNAENTVYLQMNCLKPEDIAVYYCNKDGVVEVRFTGRQEYDYWGQGTQVTVSS,low polyreactivity
9,QVQLVESGGGLVQAGGSLRLSCAASGSIFQGNAMGWYTQAPGKERELVAAITYSGGSTYYADSVKGRFTISRDNAKNTVYLQMNSLKAEDTAVYYCNTTLRDSRQYVDRAQYNRYDYWGQGTQVTVSS,low polyreactivity
10,QVQLVESGGGLVQAGGSLRLSCAASGSIFQHNDMGWYRQAPGKERELVAAMSRSGGSTYYADSVKGRFTISRDNAKNTVYLQRNSLKPEDTAVYYCNAGRRTGRYAYWGQGTQVTVSS,high polyreactivity
11,QVQLVESGGGLVQAGGSLRLSCAASGSIFQPNGMGWYRQAPGQEREFVARIDRSGGSTYYADSVKGRFTISRDNAKNTVYLQMNSLKPEDTAVYYCHAAGEVIGYDYWGQGTQVTVSS,low polyreactivity
12,QVQLVESGGGLVQAGGSLRLSCAASGSIFQPYAMGWYRQAPGKERELVAAISSSGGSTTYADSVKGRFTISRDNAKNTVYLQMNSLKPEDTAVYYCAADVEYKVFPGDYWGQGTQVTVSS,low polyreactivity
13,QVQLVESGGGLVQAGGSLRLSCAASGSIFQRTAMGWYRQAPGNERELVASINSGGSTNYADSVKGRFTISRDNAKNTVYLQMNSLKPEDTAVYYCAAVRPWWRNKPQWPRYDYWGLGTQVTVSS,low polyreactivity
14,QVQLVESGGGLVQAGGSLRLSCAASGSIFQRYTMGWYRQAPGKERELVAAITSRSGRTYYADSVKGRFTISRDNAKNTVYLQMNSLKPEDTAVYYCATVPYDQTRGYKYDYWGQGTQVTVSS,high polyreactivity
15,QVQLVESGGGLVQAGGSLRLSCAASGSIFQSYAMGWYRQAPGKERELVATITISDGSTYYADSVKGRFTISRDNAKNTVYLQMNSLKPEDTAVYYCAATDYISYGAPLRRGLNYDYWGQGTQVTVSS,low polyreactivity
16,QVQLVESGGGLVQAGGSLRLSCAASGSIFQSYDMGWYRQAPGKERELVAAIRSGDSTYYADSVKGRFTISRDNAKNTVYLQMNSLKPEDTAVYYCNKDEATFLSKDGYWGQGTQVTVSS,low polyreactivity
17,QVQLVESGGGLVQAGGSLRLSCAASGSIFQWNAMGWYRQAPGKERELVAAISSGTSTNYADSVKGRFTISRDNAKNTVYLQMNSLKPEDTAVYYCAAEGRGWAAFEVGYWGQGTLVTVSS,low polyreactivity
18,QVQLVESGGGLVQAGGSLRLSCAASGSIFQWNAMGWYRQAPGKERELVAAISTRGGRTYYADSVKGRFTISRDNAKNTVYLQMNSLKPEDTAVYYCAKQYGSYGRYYKYYYWGQGTQVTVSS,high polyreactivity
19,QVQLVESGGGLVQAGGSLRLSCAASGSIFQWYAMGWYRQAPGKERELVAAINWSSGSTYYADSVKGRFTISRDIAKNTVYLQMNSLKPEETAVYYCAARIGYGTSYLRRIYYWGQGTQVTVSS,high polyreactivity
20,QVQLVESGGGLVQAGGSLRLSCAASGSIFQYNAMGWSRQAPGKERELVAAIRTNYADSVKGRFTISRDNAKNTVYLQMNSLKPEDTAVYYCAAESSQTPTSAFDYWGQGTQVTVSS,low polyreactivity
21,QVQLVESGGGLVQAGGSLRLSCAASGSIFQYNAMGWYRQAPGKERELVAVISRSGSRTYYADSVKGRFTISRDNAKNTVYLQMNSLKPEDTAVYYCAAPFTSIGARDYYYWGQGTQVTVSS,high polyreactivity
22,QVQLVESGGGLVQAGGSLRLSCAASGSIFQYYGMGWYRPAPGKERELVAAITWNGGSTYADSVKGRFTISRDNAKNTVYLQMNSLKPEDTAVYYCAADLLVRWWLDYDYWGQGTQVTVSS,low polyreactivity

row,Sequence,polyreactivity (PSR sort gate)
1,QVQLVESGGGLVQAGGSLRLSCAASGSIFQYYGMVWYRQAPGKERELVASISRSGGSTYYADSVKGRFTISRDNAKNTVYLQMNSLKPEDTAVYYCNAKEPIRRTHLTSTYRDGYWGQGTQVTVSS,low polyreactivity
2,QVQLVESGGGLVQAGGSLRLSCAASGSIFQYYLIGWYRKAPGKERELVAAIRRSGTTYYADSVKGRFTISRDNAKNTVYLQMNSLKPEDTAVYYCNKVRGQEQSNYDYWGQGTQVTVSS,low polyreactivity
3,QVQLVESGGGLVQAGGSLRLSCAASGSIFQYYVMGWYRQAPGKERELDAAIRRSGTTYYADSVKGRFTISRDNAKNTVYLQMNSLKPEDTAVYYCNADSIYYYYLIEYEYWGQGSQVTVSS,low polyreactivity
4,QVQLVESGGGLVQAGGSLRLSCAASGSIFQYYVMGWYRQAPGKERELVAAISQSGGRTYYADSVKGRFTISRDNAKNTVYLQMNSLKPEDTAVYYCAADSRNAEYDYWGQGTQVTVSS,high polyreactivity
5,QVQLVESGGGLVQAGGSLRLSCAASGSIFRAYAMGWYRQAPGKERELVAAINWTDGSTYYADSVKGRFTISRDKAKNTVYLQMNSLKPEDTAVYYCAKDSIARHNYWGQGTQVTVSS,low polyreactivity
6,QVQLVESGGGLVQAGGSLRLSCAASGSIFRAYAMGWYRQAPGKERELVAGITKSGGSTYYADSVKGRFTISRDNAKNTVYLQMNSLKAEDTAVYYCAAYRSRTYGYWGQGTQVTVSS,high polyreactivity
7,QVQLVESGGGLVQAGGSLRLSCAASGSIFRAYVMGWYRQAPGKERELVAAISRGGSTNYADSVKGRFTISRDNAKNTVYLQMNSLKPEDSAVYYCAADWYFYSMYDEVEYWGQGTQVTVSS,low polyreactivity
8,QVQLVESGGGLVQAGGSLRLSCAASGSIFRDNAMGWYLQAPGKERELVASISRRGGSTYYADSVKGRFTISRDNAKNTVYLQMNSLKPEDTAVYYCAARAVGGTVPTRYDYWGQGTQVTVSS,high polyreactivity
9,QVQLVESGGGLVQAGGSLRLSCAASGSIFRDYAMGWYRPAPGKERELVAAISSGVSTNYADSVKGRFSISRDNAKNSVYLKMNSLIPEDTAVYYCNTDKYSESFRSYEYWGQGTQVTVSS,low polyreactivity
10,QVQLVESGGGLVQAGGSLRLSCAASGSIFRFKAMGWYRQAPGKERELVAAISWSGGRTYYADSVKGRFTISRDNAKNTVYLQMNSLKPEDTAVYYCAARRSGLKVSPNFGYWGQGTQVTVSS,high polyreactivity
11,QVQLVESGGGLVQAGGSLRLSCAASGSIFRFNTMGWYRQAPGKERELVAAITSGDGTYYADSVKGRFTISRDNAKNTVYLQMNSLKPEDTAVYYCAATRTYQLYRWAPRYYYWGQGTQVTVSS,high polyreactivity
12,QVQLVESGGGLVQAGGSLRLSCAASGSIFRGNALGWYRQAPGKERELFAAISKSGGSTYYADSVKGRFTISRDNAKNTVDLEMNSLKPEDTAVYYCAARTTYLYGMYYWGQGTQVTVSS,low polyreactivity
13,QVQLVESGGGLVQAGGSLRLSCAASGSIFRGNAMGWYRQAPGKERELVAAISSRGGSTYYADSVKGRFTISRDNAKNTVYLQMNSLKPEDTAVYYCGAVRYKYWGVQRSYSWGQGTKVTVSS,high polyreactivity
14,QVQLVESGGGLVQAGGSLRLSCAASGSIFRGNAMGWYRQAPGKERELVASISKGGGSTDYADSVKGRFIISRDNAKNTVYLQMNSLKPEDNAVYYCNKDYDRPDYYYWGQGTQVTVSS,low polyreactivity
15,QVQLVESGGGLVQAGGSLRLSCAASGSIFRGNAMGWYRQAPVKERELVAGINRAGSTKYADSVKGRFTISRDNAKNTVYLQMNSLKPEDTAVYYCAAVRYERGLWSDYWGQGTQVTVSS,high polyreactivity
16,QVQLVESGGGLVQAGGSLRLSCAASGSIFRGYAMGWYRQAPEKERELVAAMSRRGGSTYYADSVKGRFTISRDNAKNTVYLQMNSLKPEDTAVYYCAADWLSWFHGYGMYYWGQGTQVTVSS,low polyreactivity
17,QVQLVESGGGLVQAGGSLRLSCAASGSIFRGYAMGWYRQAPGKERELVAAINSSGGRTYYADSVKGRFTISRDNAKKTVYLQMNSLKPEDTAVYYCNARSKYPSYFSSMGYWGQGTQVTVSS,high polyreactivity
18,QVQLVESGGGLVQAGGSLRLSCAASGSIFRGYAMGWYRQAPGKERELVATIDSSAGSTYYADSVKGRFTISRDNAKNTVYLQMNSLIPEDTAVYYCATDPYGYYYSGFDNWGQGTQVTVSS,low polyreactivity
19,QVQLVESGGGLVQAGGSLRLSCAASGSIFRGYTMGWYRQAPGKERELVAAISRSGGSTYYADSVKGRFTISRDNAKNTVYLQMNSLKPEDTAVYYCNVVYFVTTSPGYDYWGQGTQVTVSS,high polyreactivity
20,QVQLVESGGGLVQAGGSLRLSCAASGSIFRGYTMGWYRQAPGKERELVAAISTRGGSTYYADSVKGRFTISRDNAKNTVYLQMNSLKPEDTAVYYCNARSRGRASGYDYWGQGTQVTVSS,high polyreactivity
21,QVQLVESGGGLVQAGGSLRLSCAASGSIFRINGMGCYRQAPGKERELVADITGGGSTYYADSVKGRFTISRDNAKNTVYLHMNSLKPEDTAVYYCAKDYYRSYGREDYWGQGTQVTVSS,low polyreactivity
